This note sets out measurements from patent US20170129959A1.

Assay [1] has as its target Human CD127 (IL-7 receptor alpha chain) expressed on cells (human) (UniProt P16871). Nature of the assay: cell-based or functional assay.
Assay [2] deals with Recombinant hCD127 (Sino Biologicals, reference 10975-H08H) (human) (UniProt P16871). Nature of the assay: ELISA on immobilised recombinant hCD127. Background: An ELISA detects its analyte on a solid surface through an enzyme-linked reagent.
Assay [3] shares this target. As to the kind of experiment: ELISA, recombinant hCD127 coated on plastic at 1 µg/ml, antibody titrated; printed as ED 50.
The target of assay [4] is Recombinant CD127 Fc Chimera (10975-H03H, Sino Biological) (human) (UniProt P16871). As to the kind of experiment: SPR (Biacore 3000), CD127Fc immobilised on CM5 chip, antibody injected, Bivalent analyte model. (In general: Surface plasmon resonance follows binding to a sensor surface in real time, without labels.)
Recombinant CD127 Fc Chimera (10975-H03H, Sino Biological) (human), sequence (P16871 21-239 I66T/V138I limits assumed): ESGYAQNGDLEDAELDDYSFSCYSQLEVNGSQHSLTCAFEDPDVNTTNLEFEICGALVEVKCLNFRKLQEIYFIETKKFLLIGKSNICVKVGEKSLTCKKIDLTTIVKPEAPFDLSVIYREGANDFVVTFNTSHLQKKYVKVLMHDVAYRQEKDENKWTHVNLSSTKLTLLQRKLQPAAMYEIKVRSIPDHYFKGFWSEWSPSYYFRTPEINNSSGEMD

As usually defined, the EC50 (read off the curve) is the midpoint of the concentration-response curve. Broadly, the EC50 is the midpoint of the concentration-response curve. For orientation: koff means the first-order rate constant of dissociation. For orientation: kon means a measure of how fast the partners come together.

Recombinant hCD127 (Sino Biologicals, reference 10975-H08H) (human), sequence (P16871 21-239 I66T/V138I limits assumed): as above
Human CD127 (IL-7 receptor alpha chain) expressed on cells (human), sequence (P16871 21-459 I66T/V138I): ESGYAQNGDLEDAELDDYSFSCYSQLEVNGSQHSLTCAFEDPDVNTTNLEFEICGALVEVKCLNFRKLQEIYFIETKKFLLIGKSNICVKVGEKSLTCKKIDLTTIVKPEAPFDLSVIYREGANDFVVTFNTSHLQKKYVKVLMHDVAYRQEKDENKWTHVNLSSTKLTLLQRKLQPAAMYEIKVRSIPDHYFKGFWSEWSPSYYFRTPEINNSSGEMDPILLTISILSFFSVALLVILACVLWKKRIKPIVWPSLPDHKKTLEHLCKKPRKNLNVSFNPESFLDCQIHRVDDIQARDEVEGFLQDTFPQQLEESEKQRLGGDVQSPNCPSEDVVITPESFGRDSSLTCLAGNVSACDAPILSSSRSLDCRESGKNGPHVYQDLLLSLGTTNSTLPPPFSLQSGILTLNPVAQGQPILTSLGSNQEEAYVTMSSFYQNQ

B1: MD707-13 (anti-human CD127 antibody, WO2013/056984) (antibody, from another filing, V domains shown)
VH: QLKESGPGLVQPSQTLSLTCTVSGLSLPNNNIAWIRQSPGKGLEWMGVIWSNGDTDYNSAIRSRLSISRDSSKSQVFLRMNSLQSEDTAMYFCAREGMTTLDYWGQGVVVTVSS
VL: EIVLTQSPTTMAASPGEKVTITCRASSSVSYMHWFQQKSGSSPKPWIYDSSDLASGVPDRFSGSGSGTSYSLTISSMEAEDAATYYCLQRSSYPRTFGGGTKLELKR
Consider B1, for which the inhibition of IL-7 induced pSTAT5+ T lymphocytes (% inhibition at 1000 ng/mL) in assay [1] came to 50.

B2: MD707-1 (rat anti-human CD127 antibody, previous generation) (antibody, from another filing, V domains shown)
VH: AVHLVESGGGLVQPKESLKISCAASGFTFSNAAMFWVRQAPGKGLEWVARIRTKANNYATYYADSVKGRFTISRDDSKSMVYLQMDNVKTDDTAMYYCIVVVLTTTRDYFDYWGQGVMVTVSS
VL: DIVLTQAPLSVSVTPGESASISCRSSQSLLTVKGITSLYWFLQKPGKSPQLLMYRMSNLASGVPDRFRGSGSETDFTLKISKVETEDVGVYYCAQFLEYPHTFGAGTKLELKR
For B2, in assay [2], the EC50 (read off the curve) is 0.1 µg/mL. Also, the concentration giving a half-maximal response (EC50) in assay [3] worked out at 0.123 µg/mL. Moreover, in assay [4], the Ka was determined as 2.19e+09 M⁻¹, the Kd is 0.456 nM, the koff was found to be 0.000121 s⁻¹ and the kon came out at 266000 M⁻¹ s⁻¹.
